Laboratory results from patent US20160264674A1 (ADURO BIOTECH HOLDINGS EUROPE B V, published 2016).
Positions count from the first letter of the chain named. Numbers in names are those of the source.

B1: VH14.VL15 (antibody, human IgG4 S228P, kappa, V domains shown)
VH: QVQLVQSGAEVKKPGASVKVSCKASGYTFTSYVMHWVRQAPGQGLEWMGYINPYNDAPKYNEKFKGRVTMTRDTSASTAYMELSSLRSDDTAVYYCARGLGYALYYAMDYWGQGTTVTVSS
VL: DIVMTQSPSTLSASVGDRVTITCKASQNVGNNVAWYQQKPGKAPKLLISSASNRDSGVPSRFSGSGSGTEFTLTISSLQPDDFATYFCQQYNIYPFTFGQGTKLEIKR
notes: Humanized IgG4 (S241P, Kabat) with human kappa, from HEK293T
B2: VH13.VL15 (antibody, human IgG4 S228P, kappa, V domains shown)
VH: B1 VH with A76T, A79V, D89E, T116M
VL: B1 VL
notes: Humanized IgG4 (S241P, Kabat) with human kappa, from HEK293T; also called 13.15
B3: VH12.VL15 (antibody, human IgG4 S228P, kappa, V domains shown)
VH: B1 VH with A76I, S85R
VL: B1 VL
notes: Humanized IgG4 (S241P, Kabat) with human kappa, from HEK293T; also called 12.15
B4: VH14_1C.VL15 (antibody, human IgG4, V domains shown)
VH: B1 VH with M70I, R72S
VL: DIVMTQSPSTLSASVGDRVTITCKASQNVGNNVAWYQQKPGKAPKLLISSASNRDSGVPSRFSGSGSGTEFTLTISSLQPDDFATYFCQQYNIYPFTFGQGTKLEIK
notes: VH14_1 with M70I; Rest is human IgG4 (S241P, Kabat) and human kappa; also called 14_1C.15
B5: VH14_1G.VL15 (antibody, human IgG4 S228P, kappa, V domains shown)
VH: B1 VH with R67K, V68A, R72S
VL: B1 VL
notes: VH14_1 with R67K and V68A; Humanized IgG4 (S241P, Kabat) with human kappa; also called 14_1G.15; 14_1 G.15
B6: VH14_1E.VL15 (antibody, human IgG4, V domains shown)
VH: B1 VH with Q1E, R72S
VL: B4 VL
notes: VH14_1 with Q1E; Rest is human IgG4 (S241P, Kabat) and human kappa; also called 14_1E.15
B7: VH14_1D.VL15 (antibody, human IgG4, V domains shown)
VH: B1 VH with R72S, T74K
VL: B4 VL
notes: VH14_1 with T74K; Rest is human IgG4 (S241P, Kabat) and human kappa; also called 14_1D.15

Biological target: T1, FLAG-tagged human APRIL (human, UniProt O75888 105-250, limits assumed)
T1 construct: also called FLAG-tagged APRIL; FLAG-APRIL; not shown: FLAG tag
T1 sequence (looked up): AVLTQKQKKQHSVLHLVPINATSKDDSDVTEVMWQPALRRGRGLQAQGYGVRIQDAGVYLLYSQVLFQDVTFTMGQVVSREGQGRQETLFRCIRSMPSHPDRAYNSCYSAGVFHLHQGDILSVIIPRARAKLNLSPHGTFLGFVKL
Test: FLAG-APRIL ELISA after 10 min at 65 °C, antibody at 1 µg/ml
Description: (§1) The plasmids encoding the VH and VL constructs were mixed in a 1:3 ratio (4 μg in total) and transiently expressed by transfection into HEK293T human embryonic kidney cells (HEK293T/17, ATCC-CRL-11268), using Lipofectamine 2000 transfection reagent (Invitrogen) following the manufacturer's instructions. Cell supernatants were harvested after 5 days and tested for expression of antibody and binding to APRIL using an enzyme-linked immuno assay (ELISA). In these ELISAs, all incubation steps were followed by a wash step with PBST (PBS with 0.01% Tween 20). Maxisorb 96-wells plates (Nunc) were coated with 0.5 μg/ml anti-FLAG (Sigma) or anti-IgG4 (Jackson laboratories) and incubated overnight at 4° C. Subsequently the anti-FLAG coated 96-wells plates were incubated with FLAG-tagged human APRIL for 1 hour at room temperature. Next, supernatants and dilutions thereof were incubated for 1 hour, which was followed by an incubation of 1 hour with mouse anti-human IgG HRP-conjugate (Southern Biotechnology).
(§2) To determine the effect of humanization on the stability of the antibodies, humanized antibodies were exposed to a range of temperatures for 10 minutes. Purified antibodies were diluted to 3.16 μg/ml and dilutions thereof in PBS. Next, these solutions were exposed to 65° C. or 70° C. and residual binding after heat treatment of the antibodies was measured using the FLAG-tagged APRIL ELISA assay as described before (see Table 6).

Row | Binder | % residual binding after heat treatment (room temperature = 100%) [%]
1 | B1 | 45.2
2 | B2 | 44.4
3 | B3 | 49.8

Biological target: T1, FLAG-tagged human APRIL
Test: ELISA: FLAG-tagged human APRIL captured on anti-FLAG plate, purified antibody titrated

Row | Binder | EC50 [nM]
4 | B4 | 7.04
5 | B5 | 0.78
6 | B6 | 2.67
7 | B7 | 1.95

Biological target: T1, FLAG-tagged human APRIL
Test: competition ELISA: antibody premixed with FLAG-tagged APRIL, added to coated Fc-BCMA, anti-FLAG HRP
Description: (§3) A subset of humanized antibodies described above was selected for further analyses. Again, plasmids encoding the VH and VL constructs were mixed in a 1:3 ratio (32 μg) and transiently expressed by transfection into (8*10⁶) HEK293T human embryonic kidney cells (HEK293T), using Lipofectamine 2000 transfection reagent (Invitrogen) according to the manufacturer's instructions. Supernatants were harvested (10 ml) and antibodies were purified using MabSelect Sure Protein A resin according to the manufacturer's instructions (GE Healthcare). Buffer was exchanged for PBS using Zeba desalting columns (Thermo Scientific). The concentration of purified antibodies was determined based on OD280 (Nanodrop ND-1000). The binding of the purified antibodies to APRIL was established using the above described APRIL ELISA. The blocking capability of the humanized antibodies with BCMA and TACI receptors, was tested in a competition ELISA. In these ELISAs, all incubation steps were followed by a wash step with PBST (PBS with 0.01% Tween 20). Maxisorb 96-wells plates (Nunc) were coated with 0.5 μg/ml Fc-BCMA (R&D Systems) or Fc-TACI (R&D Systems) and incubated overnight at 4° C. Next, humanized antibodies and dilutions thereof were incubated, premixed with FLAG-tagged APRIL, for 1 hour, which was followed by an incubation of 1 hour with anti-FLAG HRP-conjugate (Sigma). Immunoreactivity was visualized with 100 μl TMB Stabilized Chromagen (Invitrogen). Reactions were stopped with 100 μl 0.5 M H2504 and absorbances were measured at 450 and 620 nm. Calculated EC₅₀ and IC₅₀ representing the concentration at which 50% of the total binding signal or blocking is observed are represented in Table 5.
The antibodies were tested for binding, blockade, and stability as described before.

Row | Binder | IC50 [nM]
8 | B4 | 5.26
9 | B5 | 1.35
10 | B6 | 1.74
11 | B7 | 0.96

Biological target: T1, FLAG-tagged human APRIL
Test: FLAG-APRIL ELISA after 10 min at 70 °C, antibody at 0.316 µg/ml
Description: as §1, §2

Row | Binder | % residual binding after heat treatment (room temperature = 100%) [%]
12 | B1 | 63.1
13 | B2 | 65
14 | B3 | 70.3

Biological target: T1, FLAG-tagged human APRIL
Test: FLAG-APRIL ELISA after 10 min at 65 °C, antibody at 3.16 µg/ml
Description: as §1, §2
(§4) In addition, the stability of the substituted humanized antibodies was improved as determined using thermostability studies as described in Example 3 (see Table 9).

Row | Binder | % residual binding after heat treatment (room temperature = 100%) [%]
15 | B4 | 86.3
16 | B1 | 59
17 | B5 | 94.5
18 | B6 | 82.3
19 | B7 | 75.3

Biological target: T1, FLAG-tagged human APRIL
Test: FLAG-APRIL ELISA after 10 min at 65 °C, antibody at 1 µg/ml
Remark: another data set of the same source
Description: as §1, §2, §4

Row | Binder | % residual binding after heat treatment (room temperature = 100%) [%]
20 | B4 | 44.7
21 | B1 | 47.5
22 | B5 | 31.3
23 | B6 | 39.7
24 | B7 | 39.8

Biological target: T1, FLAG-tagged human APRIL
Test: FLAG-APRIL ELISA after 10 min at 70 °C, antibody at 3.16 µg/ml

Row | Binder | % residual binding after heat treatment (room temperature = 100%) [%]
25 | B4 | 99.4
26 | B1 | 58.6
27 | B5 | 78.2
28 | B6 | 78.8
29 | B7 | 84.3

Biological target: T1, FLAG-tagged human APRIL
Test: FLAG-APRIL ELISA after 10 min at 70 °C, antibody at 0.316 µg/ml
Remark: another data set of the same source

Row | Binder | % residual binding after heat treatment (room temperature = 100%) [%]
30 | B4 | 59.1
31 | B1 | 79.1
32 | B5 | 23.8
33 | B6 | 43.3
34 | B7 | 45.6

Biological target: T1, FLAG-tagged human APRIL
Test: FLAG-APRIL ELISA after 10 min at 70 °C, antibody at 1 µg/ml
Description: as §1, §2

Row | Binder | % residual binding after heat treatment (room temperature = 100%) [%]
35 | B1 | 42.5
36 | B2 | 47.4
37 | B3 | 51.8

Biological target: T1, FLAG-tagged human APRIL
Test: FLAG-APRIL ELISA after 10 min at 70 °C, antibody at 3.16 µg/ml
Remark: another data set of the same source
Description: as §1, §2

Row | Binder | % residual binding after heat treatment (room temperature = 100%) [%]
38 | B1 | 50
39 | B2 | 80.5
40 | B3 | 50.2

Biological target: T1, FLAG-tagged human APRIL
Test: FLAG-APRIL ELISA after 10 min at 70 °C, antibody at 1 µg/ml
Remark: another data set of the same source

Row | Binder | % residual binding after heat treatment (room temperature = 100%) [%]
41 | B4 | 43.8
42 | B1 | 55.1
43 | B5 | 16.9
44 | B6 | 28
45 | B7 | 32.7

Biological target: T1, FLAG-tagged human APRIL
Test: ELISA: FLAG-tagged human APRIL captured on anti-FLAG plate, purified antibody titrated
Remark: another data set of the same source
Description: as §1
as §3, with “(Sigma).” for “(Sigma). Immunoreactivity was visualized with 100 μl TMB Stabilized Chromagen (Invitrogen). Reactions were stopped with 100 μl 0.5 M H2504 and absorbances were measured at 450 and 620 nm. Calculated EC₅₀ and IC₅₀ representing the concentration at which 50% of the total binding signal or blocking is observed are represented in Table 5.”

Row | Binder | EC50 [nM]
46 | B1 | 48.3
47 | B2 | 223
48 | B3 | 19.8

Biological target: T1, FLAG-tagged human APRIL
Test: FLAG-APRIL ELISA after 10 min at 65 °C, antibody at 0.316 µg/ml
Description: as §1, §2

Row | Binder | % residual binding after heat treatment (room temperature = 100%) [%]
49 | B1 | 63.7
50 | B2 | 66.1
51 | B3 | 74.3

Biological target: T1, FLAG-tagged human APRIL
Test: FLAG-APRIL ELISA after 10 min at 65 °C, antibody at 3.16 µg/ml
Remark: another data set of the same source
Description: as §1, §2

Row | Binder | % residual binding after heat treatment (room temperature = 100%) [%]
52 | B1 | 58.6
53 | B2 | 76.2
54 | B3 | 66.4

Biological target: T1, FLAG-tagged human APRIL
Test: FLAG-APRIL ELISA after 10 min at 65 °C, antibody at 0.316 µg/ml
Remark: another data set of the same source
Description: as §1, §2, §4

Row | Binder | % residual binding after heat treatment (room temperature = 100%) [%]
55 | B4 | 59.1
56 | B1 | 67.5
57 | B5 | 34.2
58 | B6 | 52
59 | B7 | 49.4
